From the supplement of paper PMC9732359
± gives the uncertainty stated by the source.

Assay: protein stability index of a GFP-peptide fusion (yeast GPS) (PSI 1-4); higher = more stable; sorted into four equal gates, so the index is relative within each strain
Procedure, shortened: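 The protein stability index combines read frequencies across sorting gates, each weighted by its gate number and then summed. To obtain those frequencies, a pooled yeast library of GFP fusions to tiled 17-residue yeast protein peptides, on a plasmid also expressing Cherry, was grown to mid-log phase in leucine-free medium. The cells were sorted into four equal gates by GFP/Cherry ratio before plasmid amplification by PCR and Illumina sequencing.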

Sequence | protein stability index (doa10∆) | protein stability index (pdr5∆) | protein stability index (san1∆) | protein stability index (ubr1∆)
SSKLVDVYTLPSYVHFK [YML103C/NUP188] | 1.82 ± 0.047 | 1.61 ± 0.046 | 1.69 ± 0.061 | 1.46 ± 0.036
NFAHSDSLSVPKVSAGD [SIR4] | 2.95 ± 0.11 | 2.98 ± 0.12 | 2.76 ± 0.054 | 3.27 ± 0.11
HPPFIKYACLAIRKNGQ [SIN4] | 1.45 ± 0.042 | 1.51 ± 0.039 | 1.68 ± 0.065 | 1.42 ± 0.031
RSPPRPPSLKIIDGPKA [PRP28] | 2.23 ± 0.07 | 2.27 ± 0.079 | 1.98 ± 0.094 | 1.74 ± 0.041
FIFQIIEITNSNDLCSQ [SRB8] | 1.39 ± 0.059 | 1.62 ± 0.049 | 1.71 ± 0.1 | 1.21 ± 0.075
NVTIAQGGVLPNIHQNL [HTA1] | 1.65 ± 0.05 | 1.48 ± 0.043 | 1.36 ± 0.066 | 1.46 ± 0.034
LDDEKIFSQTTNSTYNP [YJL039C/NUP192] | 2.78 ± 0.061 | 2.85 ± 0.053 | 2.91 ± 0.062 | 3.08 ± 0.045
TFIYFAYFLIIVPVIST [COB] | 1.68 ± 0.05 | 1.3 ± 0.046 | 1.16 ± 0.087 | 1.1 ± 0.027
YGFSNKEYISRLWHTLK [SNF5] | 1.57 ± 0.098 | 2.56 ± 0.21 | 2.39 ± 0.2 | 1.19 ± 0.13
VDYGGAEWSLVRIYSGL [SNU114] | – | – | – | 3.66 ± 0.18
YMDSMNEKVAVMRNTYN [GAL11] | 2.72 ± 0.13 | 3.24 ± 0.062 | 2.35 ± 0.069 | 2.34 ± 0.098
LLKLTKVFIRESLSLKN [YML103C/NUP188] | 1.72 ± 0.1 | 1.89 ± 0.12 | 1.3 ± 0.22 | 1.83 ± 0.17
RERQVNEKLADLGLEKE [RPC53] | 3.2 ± 0.14 | 3.4 ± 0.16 | 3.06 ± 0.18 | 3.2 ± 0.24
LHKLELKAKNQEEEGEL [DSN1] | 3.14 ± 0.17 | 3.29 ± 0.17 | 3.37 ± 0.14 | 3.25 ± 0.1
KSDEGGSYLCTSSTPSP [YOR098C/NUP1] | 3.16 ± 0.065 | 3.09 ± 0.079 | 2.7 ± 0.067 | 3.07 ± 0.06
MGENEKPDVTYADVGGL [RPT3] | 3.07 ± 0.18 | 3.41 ± 0.074 | 3.28 ± 0.1 | 3.31 ± 0.079
VECTISILRKSSPEEPF [SNF12] | 1.27 ± 0.061 | 1.46 ± 0.064 | 2.32 ± 0.066 | 1.14 ± 0.051
SDVLRFLQRVRVWEYRQ [RPL15A] | 1.34 ± 0.083 | 1.88 ± 0.066 | 1.71 ± 0.083 | 2.01 ± 0.054
LKGLLQELKADSPFSLI [SRP72] | 1.43 ± 0.059 | 1.26 ± 0.059 | 2.42 ± 0.092 | 1.45 ± 0.046
LNEAPFPEENIIDAKTR [MCD1] | 3.12 ± 0.078 | 3.17 ± 0.052 | 3.136 ± 0.031 | 3.27 ± 0.051
RVKAMEVDEKPTETYSD [RPT5] | 3.46 ± 0.1 | 3.32 ± 0.075 | 3.1 ± 0.074 | 3.12 ± 0.077
AAPPSTNFEILNEMLNT [DIS3] | 2.9 ± 0.078 | 2.83 ± 0.11 | 2.95 ± 0.075 | 3.04 ± 0.061
DHAIVTSPTMPDYYVSI [RPT2] | 2.62 ± 0.11 | 2.67 ± 0.17 | 2.58 ± 0.063 | 2.86 ± 0.12
KPLFDFGKTGDQKETKK [YOR098C/NUP1] | 3.3 ± 0.12 | 3.6 ± 0.19 | 2.79 ± 0.22 | 3.34 ± 0.082
KILAGLHDTQIEGKLHM [RPN10] | 3.31 ± 0.18 | 3.46 ± 0.18 | – | 2.98 ± 0.22
SKLGKNLQTVHFGHCFN [GRR1] | 1.42 ± 0.092 | – | 2.68 ± 0.11 | 2.25 ± 0.11

Sequence | protein stability index (doa10∆) | protein stability index (pdr5∆) | protein stability index (san1∆) | protein stability index (ubr1∆)
KLHEFYLLISKENKKRK [IRR1] | 2.96 ± 0.081 | 2.65 ± 0.066 | 2.89 ± 0.051 | 3.04 ± 0.067
KGRYAPETGDHVVGRIA [RRP4] | 3.03 ± 0.08 | 3.21 ± 0.08 | 2.6 ± 0.11 | 2.67 ± 0.11
KEQTIQLPSKFTCSCNS [RPN14] | 2.15 ± 0.065 | 2.53 ± 0.057 | 1.96 ± 0.063 | 2.16 ± 0.038
KIFWERLKEINGWEKYL [ISW2] | – | – | – | 1.46 ± 0.24
TEIENYLLENNQVGTDE [YDL116W/NUP84] | 3.11 ± 0.11 | 2.9 ± 0.082 | 3.39 ± 0.072 | 2.84 ± 0.098
AHIAKNLINLSIGASIA [YCS4] | 1.34 ± 0.068 | 1.37 ± 0.072 | 1.94 ± 0.17 | 1.78 ± 0.057
IVDPTAEQLKISLSVHT [RRP46] | 1.64 ± 0.042 | 1.81 ± 0.044 | 2.34 ± 0.057 | 2.04 ± 0.043
MNFNTPQQNKTPFSFGT [YJL041W/NSP1] | 3.15 ± 0.057 | 3 ± 0.051 | 2.92 ± 0.061 | 2.95 ± 0.05
IVKTSSGNEMPPQDAEG [RPS19A] | 2.3 ± 0.25 | 3.46 ± 0.29 | – | –
MEDVKIQKEEEPENNTV [SWI3] | 3.31 ± 0.11 | 3.35 ± 0.073 | 3.41 ± 0.058 | 3.41 ± 0.057
LHKIFYKVLKNNGLPEC [YCG1] | 1.68 ± 0.045 | 1.95 ± 0.043 | 2.45 ± 0.049 | 2.13 ± 0.04
INAKNIAFASNYGIVEL [RRP43] | 2.04 ± 0.053 | 1.49 ± 0.056 | 1.4 ± 0.14 | 1.84 ± 0.051
YDGVERVSLQDIKDFAD [QCR2] | 2.84 ± 0.1 | 2.75 ± 0.1 | 2.5 ± 0.076 | 2.41 ± 0.089
PASKHDKEVVYFDEWTI [RPC34] | 3.27 ± 0.081 | 3.43 ± 0.065 | 3.04 ± 0.056 | 3.12 ± 0.082
KKSLEEDDEFEDFPIDT [SEM1] | 3 ± 0.13 | 3.02 ± 0.13 | 2.66 ± 0.14 | 3.02 ± 0.088
GDHSSVPVALKGQGPFT [YMR129W/POM152] | 1.87 ± 0.25 | – | – | 1.83 ± 0.2
LLATKQHDSSANEDEEE [CSN12] | 2.85 ± 0.12 | 3.05 ± 0.089 | 2.72 ± 0.086 | 2.87 ± 0.1
TLLARAVAHHTDCKFIR [RPT6] | 3.09 ± 0.11 | 3.03 ± 0.076 | 1.86 ± 0.14 | 2.23 ± 0.15
QIILDRFAPDNQVTDSS [SIR3] | – | 2.93 ± 0.13 | 2.94 ± 0.14 | 3.11 ± 0.098
EGNAQLVAIFGGQGNTD [FAS1] | 1.45 ± 0.067 | 1.94 ± 0.094 | 2.13 ± 0.13 | 1.05 ± 0.091
NKSRSSGHFSTDSRTGQ [CDC53] | 3.03 ± 0.054 | 3.05 ± 0.052 | 3.12 ± 0.041 | 3.14 ± 0.039
GEEDAVDLLLEIESIDK [RPN1] | 3.25 ± 0.11 | 3.08 ± 0.14 | 3.25 ± 0.08 | 3.33 ± 0.057
IMSTEAHVNKVTEETTK [SIR4] | 2.77 ± 0.09 | 2.89 ± 0.059 | 2.97 ± 0.04 | 2.85 ± 0.063
VKKTGENEISSLLAMHK [CDC53] | 2.75 ± 0.3 | 2.54 ± 0.12 | 2.05 ± 0.3 | 2.87 ± 0.25
KDIIDPKLTSIFERMIE [RPN2] | 2.68 ± 0.14 | 2.99 ± 0.11 | 2.93 ± 0.078 | 2.66 ± 0.1
VHPFHVLRINKMLSCAG [RPL10] | 1.11 ± 0.086 | 1.21 ± 0.075 | 1.21 ± 0.092 | 1.05 ± 0.06
